# From publication PMC4841250, “Structure and stability of recombinant bovine odorant-binding protein: I. Design and analysis of monomeric mutants” (PeerJ, 2016)
# B1: recombinant wild type bovine odorant-binding protein (natural protein)
# chain: AQEEEAEQNLSELSGPWRTVYIGSTNPEKIQENGPFRTYFRELVFDDEKGTVDFYFSVKRDGKWKNVHVKATKQDDGTYVADYEGQNVFKIVSLSRTHLVAHNINVDKHGQTTELTELFVKLNVEDEDLEKFWKLTEDKGIDKKNVVNFLENEDHPHPE
# notes: also called bOBP; bOBPwt; source: E. coli BL21(DE3), purified (Ni-agarose, HisGraviTrap columns)
# Biological target: the molecule itself
# Experiment: SEC; gel filtration on Superdex-75 PC 3.2/30, buffered solution (20 mM Na-phosphate, pH 7.8) without OCT; calibrated with protein standards; monomer and dimer
protein,measurement,value
B1,stoichiometry N,2
